Square brackets hold non-standard residues; d marks the D form. pY = N[C@@H](Cc1ccc(OP(=O)(O)O)cc1)C(=O)O; Ahx = NCCCCCC(=O)O
What was measured:
Abl kinase = test: Kinase-directed TSAC assembly, MRI T2 mapping; type: biochemical; conditions: free phosphopeptide added to Abl kinase-assembled TSACs
Experimental: Kinase reaction was initiated by adding indicated amount of Abl kinase (New England Biolabs). TSAC assemblies were characterized by DLS over time or MRI.
All TSAC solutions were prepared in final concentration of 10 μg Fe/ml (12 nM TSAC concentration) in 70 μl of kinase reaction buffer. TSAC mixtures were incubated at 30° C. for 3 hours after kinase additions (0, 0.05, 0.1, 0.2, 0.5 U/μl), and then MRI images were taken using a 4.7 T Bruker magnet (7 cm bore) using T2-mapping Carr-Purcell-Meiboom-Gill (CPMG) pulse sequence. To reverse assembly, 4 U/μl YOP phosphatase or 0.1 mM free pY-peptide was added to an assembled TSAC solution containing 0.2 U/μl Abl kinase. The MRI image was taken after 10 minutes at room temperature.

Crk SH2 domain = target: T1, Crk SH2 domain (Homo sapiens, UniProt P46108); test: SH2-binding peptide-mediated TSAC assembly, dynamic light scattering
T1 construct: The Crk SH2 domain was genetically modified to contain an N-terminal cysteine; GST (N, cleaved yes); made in house; host or cells: E. coli BL21-Gold(DE3)
T1 sequence (P46108 13-118 limits assumed): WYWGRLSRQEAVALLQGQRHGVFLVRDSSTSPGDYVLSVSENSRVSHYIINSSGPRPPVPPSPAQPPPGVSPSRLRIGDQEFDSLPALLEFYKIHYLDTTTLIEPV

Crk SH2 = Crk SH2 (Homo sapiens, UniProt P46108); conditions: free peptide; cited from earlier work
Chain of Crk SH2 (P46108 13-118 limits assumed): as above

Chain of Abl kinase (P00521 128-379): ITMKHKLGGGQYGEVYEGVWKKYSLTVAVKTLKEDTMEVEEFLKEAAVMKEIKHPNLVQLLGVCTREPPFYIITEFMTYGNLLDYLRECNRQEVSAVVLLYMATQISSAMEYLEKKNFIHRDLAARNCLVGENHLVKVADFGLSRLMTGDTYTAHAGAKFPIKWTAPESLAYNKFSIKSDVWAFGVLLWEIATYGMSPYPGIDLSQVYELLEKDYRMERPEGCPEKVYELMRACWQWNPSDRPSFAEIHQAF

Substance | effect of free substrate on kinase-directed T2 enhancement (Abl kinase) | reversal of pY TSAC / SH2 TSAC assembly by added free peptide (Crk SH2 domain; 200 μM free peptide added after 10 minute incubation) | effect of free peptide on pY TSAC / SH2 TSAC assembly (Crk SH2 domain; 200 μM free peptide present) | binding affinity to Crk SH2 (Crk SH2)
TAMRA-(Ahx)SRVGEEEHVpYSFPNKQKSAEC-CONH2 [free pY-Abl substrate] | lost | – | – | –
TAMRA-C(Ahx)QpYDHPNI-CONH2 ({TAMRA}-C[Ahx]Q[pY]DHPNI-NH2; not fully specified) [free pY peptide] | – | rapidly disassembled | inhibited | low μM

Reference: patent US20090246142A1, “Triggered Self-Assembly of Nanoparticles In Vivo” (MASSACHUSETTS INSTITUTE OF TECHNOLOGY, priority 2006, published 2009)
